Numbering of substitutions follows the chain as printed.
B1: CR8001 (antibody, V domains shown)
VH: EVQLVESGGGLIQPGGSLRLSCAASGFTVSSNYVSWVRQAPGKGLEWLSLIYTGGTTYYADSVKGRFTISRDNSKNTVFLQMNSLRAEDAAMYYCARVSALRFLQWPNYAMDV
VL: QSALTQPASVSGSPGRSITISCSGTRSDVGGHNYVSWYQQHPGKAPKLMIYEVSHRPSGVSNRFSGSKSGSTASLTISGLQSEDEADYYCSSYTGEGPLGV
B2: CR8018 (antibody, V domains shown)
VH: EVQLVETGGDLVQPGGSLRLSCSASEFSFSSYWMSWVRQAPGKGLEWVANMKQDGSEKYYVDSVKGRFTISRDNAKNSLYLQMNSLRGEDTAVYYCARGSCDDSWTGCHDAFDI
VL: B1 VL with R16Q, S23T, R26S, H32Y
B3: CR8003 (antibody, V domains shown)
VH: B2 VH
VL: VLTQPPSVSVAPGQTARIACGGNNIGSKSVHWYQQKPGQAPVLVVYDDSARPSGIPERFSGSNSGNTATLTISRVEAGDEADYYCQVWESGSDLRLL
B4: CR8016 (antibody, V domains shown)
VH: B2 VH with T7S
VL: QSVVTQPPSVSGAPGQRVTISCTGSSSNIGAGYDVHWYQQLPGTAPKLLIYGNNNRPSGVPDRFSGSRSGPLALLAITGLQAEDEADYYCQSYDSSLSVYV
B5: CR8015 (antibody, V domains shown)
VH: B2 VH with E1Q, V5Q, T7S
VL: VLTQPPSVSVAPGQTAKITCGGDNIGRKSVHWYQQKPGLAPVLVVNDNSDRPSGIPARFSGSNSGNTATLTISRVEAGDEADYYCHVWGSSRDHYV
B6: CR8017 (antibody, V domains shown)
VH: B2 VH
VL: SSELTQDPAVSVALGQTVRITCQGDSLRSYYASWYQQKPGQAPVLVIYAKTNRPSGIPDRFSGSTSGNTASLTITGAQAEDEADYYCNSRDSSGNHVV
B7: CR8039 (antibody, V domains shown)
VH: QLQLQESGPGLVKPSETLSLTCTVSGGSIGSYYWSWIRQPPGKGLEWIGYIYYRGGTSYNPSLKSRVTISVDTSKSQFTLKLNSVTAADTAVYYCARKDWGSAAGSVWYFDL
VL: QSALTQPPSASGSPGQSVTISCTGTSSDVGGYNYVSWYQQHPGKAPKLMIREVSKRPSGVPDRFSGSKSGNTASLTVSGLQAEDEAEYYCSSYAGSNNLI
B8: CR8052 (antibody, V domains shown)
VH: DIQLTQSPSSLSASVGDRVTITCRASQGINTYLNWYQQKPGKAPKVLIFAASTLQSGVPSRFSGSGSGTEFTLNINNLQPEDFATYYCQQSYSTAIT
VL: EVQLVESGGGVVQPGRSLRLSCAASGFSFTTYGMHWVRQAPGKGLEWVAFIWYDGSNKHYQDSVKGRFTISKDNSNNMLYLQMDSLRVADTAVYYCVRDGGYSTWEWYFDL
B9: CR8049 (antibody, V domains shown)
VH: QVTLKESGPVLVKPKETLTLTCTVSGFSLSNTRMGVSWIRQPPGKALEWLAHIFSNDETSYRTSLKRRLTISQDISKSQVVLSMTNVDPADTATYFCARIGSGYESSAYSTWLDP
VL: QVQLQQWGAGLLKPSETLSLTCAVYGGSFTDHYWSWIRQSPGKGLEWIGEVVHSGDTNYTPSLRNRVSISVDSSKNQFSLRLGSVTAADTAVYYCARGRNVAVVGAIQRHYDY
B10: CR8050 (antibody, V domains shown)
VH: EIVMTQSPGTLSLSPGERATLSCRASQSVSRNYLAWYQQKPGLAPRLLISGASSRATGVPDRFSGRGSDTDFTLTISRLEPEDFAVYYCQHYGSVLVA
VL: QVQLQESGPGLVKPSETLSLTCTVSGGSVSSGTYYWSWIRQPPGKGLEWIGDISYSGSTNYNPSLKSRVTISRDTSKNLVSLKLTSVTAADTAVHYCARAMAAYNYDRGGYNDYYYMDV
B11: CR8041 (antibody, V domains shown)
VH: QVQLVQSGAEVKKPGASVKVSCQASGYTFTSFGLSWVRQAPGQGPEWMGWISAYNGEIKYAQKFQGRVSMTTDTSTRTAYMEVRSLRPDDTAVYYCAREPPLYFSSWSLDF
VL: EIVLTQSPGTLSLSPGERATLSCRASQSVSSNYLAWFQQKPGQAPRLLIYGASRRATGIPDRFSGSGSGTDFTLTISRLEPEDFAVYYCQQYDSSPRT

molecular target: 3 H1N1 strains (1999-2007); assay: cell-based or functional assay

Binder | SK50 titer
B1 | > 40 µg/mL

molecular target: HA of virus A/Brisbane/59/2007 (H1N1) (influenza A virus (H1N1)); assay: cell-based or functional assay

Binder | Neutralization titer SK50
B1 | > 40 µg/mL
B2 | > 40 µg/mL
B3 | > 40 µg/mL
B4 | > 40 µg/mL
B5 | > 40 µg/mL
B6 | > 40 µg/mL
B7 | > 40 µg/mL
B8 | > 40 µg/mL
B9 | > 40 µg/mL

molecular target: HA of virus A/Chick/Germany/N/49 (H10) (influenza A virus (H10)); assay: cell-based or functional assay

Binder | Neutralization titer SK50 | SK50 titer
B1 | > 40 µg/mL | > 40 µg/mL
B2 | > 40 µg/mL | 
B3 | > 40 µg/mL | 
B4 | > 40 µg/mL | 
B5 | > 40 µg/mL | 
B6 | > 40 µg/mL | 
B7 | > 40 µg/mL | 
B10 | > 40 µg/mL | 
B8 | > 40 µg/mL | 
B9 | > 40 µg/mL | 

molecular target: HA of virus A/Hiroshima/52/2005 (H3N2) (influenza A virus (H3N2)); assay: cell-based or functional assay

Binder | Neutralization titer SK50 | SK50 titer
B1 | 13 µg/mL | 13 µg/mL
B2 | 8.45 µg/mL | 
B3 | 4.27 µg/mL | 
B4 | 8.84 µg/mL | 
B5 | 28.3 µg/mL | 
B6 | 13.6 µg/mL | 
B7 | 3.26 µg/mL | 
B8 | > 40 µg/mL | 
B9 | 3.54 µg/mL | 

molecular target: HA of virus A/Johannesburg/33/94 (H3N2) (influenza A virus (H3N2)); assay: cell-based or functional assay

Binder | Neutralization titer SK50 | SK50 titer
B1 | 6.51 µg/mL | 6.5 µg/mL
B2 | > 40 µg/mL | 
B3 | > 40 µg/mL | 
B4 | > 40 µg/mL | 
B5 | > 40 µg/mL | 
B6 | > 40 µg/mL | 
B7 | 1.33 µg/mL | 
B10 | 1.49 µg/mL | 
B8 | > 40 µg/mL | 
B9 | > 40 µg/mL | 

molecular target: HA of virus A/Mallard/Netherlands/12/2000 (H7N3) (influenza A virus (H7N3)); assay: cell-based or functional assay

Binder | Neutralization titer SK50 | SK50 titer
B1 | > 40 µg/mL | > 40 µg/mL
B2 | > 40 µg/mL | 
B3 | > 40 µg/mL | 
B4 | > 40 µg/mL | 
B5 | > 40 µg/mL | 
B6 | > 40 µg/mL | 
B7 | > 40 µg/mL | 
B10 | > 40 µg/mL | 
B8 | > 40 µg/mL | 
B9 | > 40 µg/mL | 

molecular target: HA of virus A/New Caledonia/20/1999 (H1N1) (influenza A virus (H1N1)); assay: cell-based or functional assay

Binder | Neutralization titer SK50
B1 | > 40 µg/mL
B2 | > 40 µg/mL
B3 | > 40 µg/mL
B4 | > 40 µg/mL
B5 | > 40 µg/mL
B6 | > 40 µg/mL
B7 | > 40 µg/mL
B8 | > 40 µg/mL
B9 | > 40 µg/mL

molecular target: HA of virus A/Panama/2000/1999 (H3N2) (influenza A virus (H3N2)); assay: cell-based or functional assay

Binder | Neutralization titer SK50 | SK50 titer
B1 | > 40 µg/mL | > 40 µg/mL
B2 | > 40 µg/mL | 
B3 | > 40 µg/mL | 
B4 | 28.3 µg/mL | 
B5 | > 40 µg/mL | 
B6 | > 40 µg/mL | 
B7 | 4.6 µg/mL | 
B10 | 6.5 µg/mL | 
B8 | 21.9 µg/mL | 
B9 | > 40 µg/mL | 

molecular target: HA of virus A/Solomon Islands/IVR-145 (H1N1) (influenza A virus (H1N1)); assay: cell-based or functional assay

Binder | Neutralization titer SK50
B1 | > 40 µg/mL
B2 | > 40 µg/mL
B3 | > 40 µg/mL
B4 | > 40 µg/mL
B5 | > 40 µg/mL
B6 | > 40 µg/mL
B7 | > 40 µg/mL
B8 | > 40 µg/mL
B9 | > 40 µg/mL

molecular target: HA of virus A/Wisconsin/67/2005 (H3N2) (influenza A virus (H3N2)); assay: cell-based or functional assay

Binder | Neutralization titer SK50 | SK50 titer
B1 | 11.9 µg/mL | 11.9 µg/mL
B2 | 6.03 µg/mL | 
B3 | 5.31 µg/mL | 
B4 | 1.77 µg/mL | 
B5 | 23.8 µg/mL | 
B6 | 2.82 µg/mL | 
B7 | 1.8 µg/mL | 
B10 | 1.77 µg/mL | 
B8 | > 40 µg/mL | 
B9 | 3.26 µg/mL | 

molecular target: 3 H1N1 strains (1999-2007); assay: cell-based or functional assay; remark: another data set of the same source

Binder | SK50 titer
B11 | > 40 µg/mL

molecular target: full-length recombinant H1 HA (A/New Caledonia/20/1999) on PER.C6 cells (influenza A virus (H1N1)); assay: FACS, IgG 5 µg/ml, HA-expressing PER.C6 cells; untransfected MFI 3

Binder | MFI
B2 | 3 MFI
B3 | 3 MFI
B4 | 3 MFI
B5 | 4 MFI
B6 | 3 MFI
B9 | 3 MFI

molecular target: full-length recombinant H3 HA (A/Wisconsin/67/2005) on PER.C6 cells (influenza A virus (H3N2)); assay: as above

Binder | MFI
B2 | 348 MFI
B3 | 657 MFI
B4 | 840 MFI
B5 | 600 MFI
B6 | 558 MFI
B9 | 542 MFI

molecular target: full-length recombinant H7 HA (A/Netherlands/219/2003) on PER.C6 cells (influenza A virus (H7N7)); assay: as above

Binder | MFI
B2 | 4 MFI
B3 | 5 MFI
B4 | 5 MFI
B5 | 4 MFI
B6 | 4 MFI
B9 | 4 MFI

molecular target: full-length recombinant H1 HA (A/New Caledonia/20/1999) on PER.C6 cells (influenza A virus (H1N1)); assay: FACS, IgG 5 µg/ml, HA-expressing PER.C6 cells; untransfected MFI 4

Binder | MFI
B1 | 100 MFI
B7 | 4 MFI
B11 | 4 MFI
B8 | 4 MFI

molecular target: full-length recombinant H3 HA (A/Wisconsin/67/2005) on PER.C6 cells (influenza A virus (H3N2)); assay: as above

Binder | MFI
B1 | 763 MFI
B7 | 503 MFI
B11 | 364 MFI
B8 | 364 MFI

molecular target: full-length recombinant H7 HA (A/Netherlands/219/2003) on PER.C6 cells (influenza A virus (H7N7)); assay: as above

Binder | MFI
B1 | 106 MFI
B7 | 4 MFI
B11 | 120 MFI
B8 | 5 MFI

molecular target: full-length recombinant H1 HA (A/New Caledonia/20/1999) on PER.C6 cells (influenza A virus (H1N1)); assay: FACS, IgG 5 µg/ml, HA-expressing PER.C6 cells; untransfected MFI 6

Binder | MFI
B10 | 8 MFI

molecular target: full-length recombinant H3 HA (A/Wisconsin/67/2005) on PER.C6 cells (influenza A virus (H3N2)); assay: as above

Binder | MFI
B10 | 282 MFI

molecular target: full-length recombinant H7 HA (A/Netherlands/219/2003) on PER.C6 cells (influenza A virus (H7N7)); assay: as above

Binder | MFI
B10 | 6 MFI
